According to publication PMC314469, “Protein Interaction Networks by Proteome Peptide Scanning” (PLoS Biology, 2004):
One block for each binder: values may come before it.

Legend:
Test in all cases: SPOT array
[1] = biological target: T1, Boi1 SH3 (BOI1_YEAST), P38041
T1 chain: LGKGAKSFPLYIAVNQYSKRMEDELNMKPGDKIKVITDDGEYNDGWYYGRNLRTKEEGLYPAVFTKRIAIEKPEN

[2] = biological target: T2, Boi2 SH3 (BOI2_YEAST), P39969
T2 chain: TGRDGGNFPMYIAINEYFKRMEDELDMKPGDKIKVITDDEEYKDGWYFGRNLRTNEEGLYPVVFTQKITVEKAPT

[3] = biological target: T3, Myo5 SH3 (MYO5_YEAST), Q04439
T3 chain: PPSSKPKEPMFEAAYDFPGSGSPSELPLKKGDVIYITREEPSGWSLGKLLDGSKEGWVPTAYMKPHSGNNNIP

[4] = biological target: T4, Rvs167 SH3 (RV167_YEAST), P39743
T4 chain: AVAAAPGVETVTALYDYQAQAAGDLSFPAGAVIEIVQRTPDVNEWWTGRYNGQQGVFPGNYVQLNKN

[5] = biological target: Sho1 SH3 (SHO1_YEAST), P40073
Chain of Sho1 SH3 (SHO1_YEAST), P40073 (P40073 295-366): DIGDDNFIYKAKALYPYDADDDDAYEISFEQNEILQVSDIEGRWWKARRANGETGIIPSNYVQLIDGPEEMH

[6] = biological target: T5, Yfr024 SH3 (LSB3_YEAST), P43603
T5 chain: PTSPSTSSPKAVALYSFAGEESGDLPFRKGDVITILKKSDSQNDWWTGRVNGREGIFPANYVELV

[7] = biological target: T6, Yhr016c SH3 (YSC84_YEAST), P32793
T6 chain: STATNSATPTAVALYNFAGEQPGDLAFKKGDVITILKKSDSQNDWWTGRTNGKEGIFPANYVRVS

normalised SPOT signal, Boehringer light units (BLU); mean over the file's lines of this peptide [1]: 638
normalised SPOT signal, Boehringer light units (BLU); mean over the file's lines of this peptide [2]: 0
normalised SPOT signal, Boehringer light units (BLU); mean over the file's lines of this peptide [3]: 208
normalised SPOT signal, Boehringer light units (BLU); mean over the file's lines of this peptide [4]: 46.2
normalised SPOT signal, Boehringer light units (BLU); mean over the file's lines of this peptide [5]: 58.5
normalised SPOT signal, Boehringer light units (BLU); mean over the file's lines of this peptide [6]: 157
normalised SPOT signal, Boehringer light units (BLU); mean over the file's lines of this peptide [7]: 9.1
B1: YIR027C 235-248 (peptide)
chain: SLRARNGPVPPVHI

normalised SPOT signal, Boehringer light units (BLU); mean over the file's lines of this peptide [1]: 73.9
normalised SPOT signal, Boehringer light units (BLU); mean over the file's lines of this peptide [2]: 33.7
normalised SPOT signal, Boehringer light units (BLU); mean over the file's lines of this peptide [3]: 118
normalised SPOT signal, Boehringer light units (BLU); mean over the file's lines of this peptide [4]: 14.4
normalised SPOT signal, Boehringer light units (BLU); mean over the file's lines of this peptide [5]: 14.3
normalised SPOT signal, Boehringer light units (BLU); mean over the file's lines of this peptide [6]: 73.4
normalised SPOT signal, Boehringer light units (BLU); mean over the file's lines of this peptide [7]: 25.1
B2: YPL084W 526-539 (peptide)
chain: DEFNRNTPPQPSLL

normalised SPOT signal, Boehringer light units (BLU); mean over the file's lines of this peptide [1]: 19.1
normalised SPOT signal, Boehringer light units (BLU); mean over the file's lines of this peptide [2]: 18.9
normalised SPOT signal, Boehringer light units (BLU); mean over the file's lines of this peptide [3]: 153
normalised SPOT signal, Boehringer light units (BLU); mean over the file's lines of this peptide [4]: 17.2
normalised SPOT signal, Boehringer light units (BLU); mean over the file's lines of this peptide [5]: 23.2
normalised SPOT signal, Boehringer light units (BLU); mean over the file's lines of this peptide [6]: 120
normalised SPOT signal, Boehringer light units (BLU); mean over the file's lines of this peptide [7]: 18.2
B3: YLR337C 513-526 (peptide)
chain: DDNVRPSPISPSIN

normalised SPOT signal, Boehringer light units (BLU); mean over the file's lines of this peptide [1]: 59.6
normalised SPOT signal, Boehringer light units (BLU); mean over the file's lines of this peptide [2]: 15
normalised SPOT signal, Boehringer light units (BLU); mean over the file's lines of this peptide [3]: 209
normalised SPOT signal, Boehringer light units (BLU); mean over the file's lines of this peptide [4]: 46.5
normalised SPOT signal, Boehringer light units (BLU); mean over the file's lines of this peptide [5]: 35.8
normalised SPOT signal, Boehringer light units (BLU); mean over the file's lines of this peptide [6]: 23.2
normalised SPOT signal, Boehringer light units (BLU); mean over the file's lines of this peptide [7]: 19
B4: YDL195W 303-316 (peptide)
chain: SFKTKFAPEAPDLF

normalised SPOT signal, Boehringer light units (BLU); mean over the file's lines of this peptide [1]: 1740
normalised SPOT signal, Boehringer light units (BLU); mean over the file's lines of this peptide [2]: 23.7
normalised SPOT signal, Boehringer light units (BLU); mean over the file's lines of this peptide [3]: 153
normalised SPOT signal, Boehringer light units (BLU); mean over the file's lines of this peptide [4]: 129
normalised SPOT signal, Boehringer light units (BLU); mean over the file's lines of this peptide [5]: 146
normalised SPOT signal, Boehringer light units (BLU); mean over the file's lines of this peptide [6]: 122
normalised SPOT signal, Boehringer light units (BLU); mean over the file's lines of this peptide [7]: 0
B5: YIR007W 739-752 (peptide)
chain: SAKSKSRPNTPGSD

normalised SPOT signal, Boehringer light units (BLU); mean over the file's lines of this peptide [1]: 26.3
normalised SPOT signal, Boehringer light units (BLU); mean over the file's lines of this peptide [2]: 40.7
normalised SPOT signal, Boehringer light units (BLU); mean over the file's lines of this peptide [3]: 343
normalised SPOT signal, Boehringer light units (BLU); mean over the file's lines of this peptide [4]: 90.4
normalised SPOT signal, Boehringer light units (BLU); mean over the file's lines of this peptide [5]: 187
normalised SPOT signal, Boehringer light units (BLU); mean over the file's lines of this peptide [6]: 1300
normalised SPOT signal, Boehringer light units (BLU); mean over the file's lines of this peptide [7]: 79.8
B6: YGL197W 260-273 (peptide)
chain: SWHPKTIPKQPMEI

normalised SPOT signal, Boehringer light units (BLU); mean over the file's lines of this peptide [1]: 210
normalised SPOT signal, Boehringer light units (BLU); mean over the file's lines of this peptide [2]: 48.5
normalised SPOT signal, Boehringer light units (BLU); mean over the file's lines of this peptide [3]: 189
normalised SPOT signal, Boehringer light units (BLU); mean over the file's lines of this peptide [4]: 61.3
normalised SPOT signal, Boehringer light units (BLU); mean over the file's lines of this peptide [5]: 65.9
normalised SPOT signal, Boehringer light units (BLU); mean over the file's lines of this peptide [6]: 126
normalised SPOT signal, Boehringer light units (BLU); mean over the file's lines of this peptide [7]: 38.8
B7: YPL247C 221-234 (peptide)
chain: SKYNRQHPANPAAA

normalised SPOT signal, Boehringer light units (BLU); mean over the file's lines of this peptide [1]: 0
normalised SPOT signal, Boehringer light units (BLU); mean over the file's lines of this peptide [2]: 16.6
normalised SPOT signal, Boehringer light units (BLU); mean over the file's lines of this peptide [3]: 231
normalised SPOT signal, Boehringer light units (BLU); mean over the file's lines of this peptide [4]: 52.7
normalised SPOT signal, Boehringer light units (BLU); mean over the file's lines of this peptide [5]: 33.5
normalised SPOT signal, Boehringer light units (BLU); mean over the file's lines of this peptide [6]: 62.3
normalised SPOT signal, Boehringer light units (BLU); mean over the file's lines of this peptide [7]: 19.2
B8: YPR173C 368-381 (peptide)
chain: DETRKLTPSSPGDD

normalised SPOT signal, Boehringer light units (BLU); mean over the file's lines of this peptide [1]: 441
normalised SPOT signal, Boehringer light units (BLU); mean over the file's lines of this peptide [2]: 102
normalised SPOT signal, Boehringer light units (BLU); mean over the file's lines of this peptide [3]: 362
normalised SPOT signal, Boehringer light units (BLU); mean over the file's lines of this peptide [4]: 83.7
normalised SPOT signal, Boehringer light units (BLU); mean over the file's lines of this peptide [5]: 225
normalised SPOT signal, Boehringer light units (BLU); mean over the file's lines of this peptide [6]: 546
normalised SPOT signal, Boehringer light units (BLU); mean over the file's lines of this peptide [7]: 40
B9: YBR128C 258-271 (peptide)
chain: SRHLKLVPSTPMDI

normalised SPOT signal, Boehringer light units (BLU); mean over the file's lines of this peptide [1]: 57.2
normalised SPOT signal, Boehringer light units (BLU); mean over the file's lines of this peptide [2]: 1
normalised SPOT signal, Boehringer light units (BLU); mean over the file's lines of this peptide [3]: 106
normalised SPOT signal, Boehringer light units (BLU); mean over the file's lines of this peptide [4]: 26.2
normalised SPOT signal, Boehringer light units (BLU); mean over the file's lines of this peptide [5]: 54.9
normalised SPOT signal, Boehringer light units (BLU); mean over the file's lines of this peptide [6]: 0.5
normalised SPOT signal, Boehringer light units (BLU); mean over the file's lines of this peptide [7]: 9.2
B10: YNL132W 471-484 (peptide)
chain: DEPIRYAPGDPIEK

normalised SPOT signal, Boehringer light units (BLU); mean over the file's lines of this peptide [1]: 41
normalised SPOT signal, Boehringer light units (BLU); mean over the file's lines of this peptide [2]: 25.9
normalised SPOT signal, Boehringer light units (BLU); mean over the file's lines of this peptide [3]: 49.2
normalised SPOT signal, Boehringer light units (BLU); mean over the file's lines of this peptide [4]: 84.8
normalised SPOT signal, Boehringer light units (BLU); mean over the file's lines of this peptide [5]: 27.6
normalised SPOT signal, Boehringer light units (BLU); mean over the file's lines of this peptide [6]: 112
normalised SPOT signal, Boehringer light units (BLU); mean over the file's lines of this peptide [7]: 60.1
B11: YOR245C 211-224 (peptide)
chain: SNYSKIFPGIPISL

normalised SPOT signal, Boehringer light units (BLU); mean over the file's lines of this peptide [1]: 91.8
normalised SPOT signal, Boehringer light units (BLU); mean over the file's lines of this peptide [2]: 27
normalised SPOT signal, Boehringer light units (BLU); mean over the file's lines of this peptide [3]: 285
normalised SPOT signal, Boehringer light units (BLU); mean over the file's lines of this peptide [4]: 30.2
normalised SPOT signal, Boehringer light units (BLU); mean over the file's lines of this peptide [5]: 27.7
normalised SPOT signal, Boehringer light units (BLU); mean over the file's lines of this peptide [6]: 12.9
normalised SPOT signal, Boehringer light units (BLU); mean over the file's lines of this peptide [7]: 10
B12: YOL157C 233-246 (peptide)
chain: DENSKWQPSDPFTM

normalised SPOT signal, Boehringer light units (BLU); mean over the file's lines of this peptide [1]: 37.1
normalised SPOT signal, Boehringer light units (BLU); mean over the file's lines of this peptide [2]: 16.1
normalised SPOT signal, Boehringer light units (BLU); mean over the file's lines of this peptide [3]: 127
normalised SPOT signal, Boehringer light units (BLU); mean over the file's lines of this peptide [4]: 32.9
normalised SPOT signal, Boehringer light units (BLU); mean over the file's lines of this peptide [5]: 49.5
normalised SPOT signal, Boehringer light units (BLU); mean over the file's lines of this peptide [6]: 50.8
normalised SPOT signal, Boehringer light units (BLU); mean over the file's lines of this peptide [7]: 22.9
B13: YNL090W 103-116 (peptide)
chain: DEALRYSPDAPIVL

normalised SPOT signal, Boehringer light units (BLU); mean over the file's lines of this peptide [1]: 386
normalised SPOT signal, Boehringer light units (BLU); mean over the file's lines of this peptide [2]: 45.5
normalised SPOT signal, Boehringer light units (BLU); mean over the file's lines of this peptide [3]: 244
normalised SPOT signal, Boehringer light units (BLU); mean over the file's lines of this peptide [4]: 36.2
normalised SPOT signal, Boehringer light units (BLU); mean over the file's lines of this peptide [5]: 35.8
normalised SPOT signal, Boehringer light units (BLU); mean over the file's lines of this peptide [6]: 304
normalised SPOT signal, Boehringer light units (BLU); mean over the file's lines of this peptide [7]: 47.2
B14: YBR195C 132-145 (peptide)
chain: SNRARYLPQNPDII

normalised SPOT signal, Boehringer light units (BLU); mean over the file's lines of this peptide [1]: 187
normalised SPOT signal, Boehringer light units (BLU); mean over the file's lines of this peptide [2]: 0.5
normalised SPOT signal, Boehringer light units (BLU); mean over the file's lines of this peptide [3]: 57.8
normalised SPOT signal, Boehringer light units (BLU); mean over the file's lines of this peptide [4]: 25.4
normalised SPOT signal, Boehringer light units (BLU); mean over the file's lines of this peptide [5]: 23.4
normalised SPOT signal, Boehringer light units (BLU); mean over the file's lines of this peptide [6]: 34
normalised SPOT signal, Boehringer light units (BLU); mean over the file's lines of this peptide [7]: 74
B15: YOR360C 470-483 (peptide)
chain: DDIIKDHPHIPNGQ

normalised SPOT signal, Boehringer light units (BLU); mean over the file's lines of this peptide [1]: 137
normalised SPOT signal, Boehringer light units (BLU); mean over the file's lines of this peptide [2]: 41.4
normalised SPOT signal, Boehringer light units (BLU); mean over the file's lines of this peptide [3]: 139
normalised SPOT signal, Boehringer light units (BLU); mean over the file's lines of this peptide [4]: 162
normalised SPOT signal, Boehringer light units (BLU); mean over the file's lines of this peptide [5]: 17.3
normalised SPOT signal, Boehringer light units (BLU); mean over the file's lines of this peptide [6]: 59.3
normalised SPOT signal, Boehringer light units (BLU); mean over the file's lines of this peptide [7]: 37.2
B16: YLL006W 228-241 (peptide)
chain: DFIGRKSPDLPEYL
